These results are taken from patent US20100204461 (published 2010).

The data set concerns the target alpha-thrombin (UniProt P00734;P00734 P00734:328-363,P00734:364-622). The data set is described as follows: fluorescence dequenching at 277 nM TAL2, protein ratios 1:1 to 100:1; t1/2 about 30 min at 10-fold excess; 10 mM KCl, 5 mM MgCl2, 12.5 mM Tris acetate pH 6.5.

B1: TAL2 beacon with Dabcyl anchor (structured_DNA)
DNA 1: GGTTGGTTTGGTTGGCAACCTCTGCTACGTG
DNA 2: CACGTAGCAG
modifications: anchor 5' NH2-(CH2)6
Regarding B1, the binding result was “binds”.
